# Values quoted from earlier work as cited in patent EP3351262A1, “CURAGLUTIDE FOR IN TREATMENT OF PREDIABETES, DIABETES, OBESITY AND METABOLIC DISEASES ASSOCIATED THERETO” (Istanbul Universitesi Rektorlugu, priority 2016, dated 2018).
# Details: in vivo; cited from earlier work
substance,measurement,value
"GLP-1: glucagon like peptide-1, a neuroendocrine (intestinal) hormone with incretin effect",half-life in plasma,12 to 30 min
